Measured values taken from article PMC8546573.

Assays:
[1] = biological target: biotinylated soluble human PDGFRα (UniProt P16234); experiment: cell-based binding (staining of transfected 293E cells with soluble PDGFRα and 13H11 scFv); conditions: read off a plot
[2] = biological target: HCMV gHgLgO trimer with full-length gH on HEK293-6E cells, gO R236N/P238S (human cytomegalovirus, strain AD169 | human cytomegalovirus, strain TR) (UniProt P12824); experiment: flow cytometry on cells; HEK293-6E cells cotransfected with full-length gH, gL and gO (wt or mutant) stained with 4 μg/ml biotinylated PDGFRα in PBS with 0.5% BSA, room temperature, half an hour, then Alexa Fluor 647-streptavidin; PDGFRα staining set against staining by the gH antibody 13H11 and compared with wt
[3] = biological target: HCMV gHgLgO trimer with full-length gH on HEK293-6E cells, gO Y240A (human cytomegalovirus, strain AD169 | human cytomegalovirus, strain TR) (UniProt P12824); experiment: as above
[4] = biological target: HCMV gHgLgO trimer with full-length gH on HEK293-6E cells, gO K359A (human cytomegalovirus, strain AD169 | human cytomegalovirus, strain TR) (UniProt P12824); experiment: as above
[5] = biological target: HCMV gHgLgO trimer with full-length gH on HEK293-6E cells, gO R236A (human cytomegalovirus, strain AD169 | human cytomegalovirus, strain TR) (UniProt P12824); experiment: as above
[6] = biological target: HCMV gHgLgO trimer with full-length gH on HEK293-6E cells, gO R214A (human cytomegalovirus, strain AD169 | human cytomegalovirus, strain TR) (UniProt P12824); experiment: as above

Row | Substance | other: ratio of PDGFRα/13H11 binding [1] | other results
1 | HCMV gHgLgO trimer with full-length gH on the surface of HEK293-6E cells, gO wild type (from UniProt P12824;P16832) gO:E346A | 1.2 | –
2 | HCMV gHgLgO trimer with full-length gH on the surface of HEK293-6E cells, gO wild type (from UniProt P12824;P16832) gO:F113A | 0.75 | –
3 | HCMV gHgLgO trimer with full-length gH on the surface of HEK293-6E cells, gO wild type (from UniProt P12824;P16832) gO:F113N | 0.73 | –
4 | HCMV gHgLgO trimer with full-length gH on the surface of HEK293-6E cells, gO wild type (from UniProt P12824;P16832) gO:F138A | 0.82 | –
5 | HCMV gHgLgO trimer with full-length gH on the surface of HEK293-6E cells, gO wild type (from UniProt P12824;P16832) gO:K123A | 0.87 | –
6 | HCMV gHgLgO trimer with full-length gH on the surface of HEK293-6E cells, gO wild type (from UniProt P12824;P16832) gO:K194A | 1.1 | –
7 | HCMV gHgLgO trimer with full-length gH on the surface of HEK293-6E cells, gO wild type (from UniProt P12824;P16832) gO:P343A | 1.2 | –
8 | HCMV gHgLgO trimer with full-length gH on the surface of HEK293-6E cells, gO wild type (from UniProt P12824;P16832) gO:Q117A | 0.81 | –
9 | HCMV gHgLgO trimer with full-length gH on the surface of HEK293-6E cells, gO wild type (from UniProt P12824;P16832) gO:R119A | 0.9 | –
10 | HCMV gHgLgO trimer with full-length gH on the surface of HEK293-6E cells, gO wild type (from UniProt P12824;P16832) gO:R232A | 0.96 | –
11 | HCMV gHgLgO trimer with full-length gH on the surface of HEK293-6E cells, gO wild type (from UniProt P12824;P16832) gO:R239A | 1.1 | –
12 | HCMV gHgLgO trimer with full-length gH on the surface of HEK293-6E cells, gO wild type (from UniProt P12824;P16832) gO:R338A | 0.95 | –
13 | HCMV gHgLgO trimer with full-length gH on the surface of HEK293-6E cells, gO wild type (from UniProt P12824;P16832) gO:R349A | 1 | –
14 | HCMV gHgLgO trimer with full-length gH on the surface of HEK293-6E cells, gO wild type (from UniProt P12824;P16832) gO:T116A | 0.62 | –
15 | HCMV gHgLgO trimer with full-length gH on the surface of HEK293-6E cells, gO wild type (from UniProt P12824;P16832) gO:Y371A | 1.1 | –
16 | biotinylated soluble human PDGFRα (from UniProt P16234 24-528) (receptor) | – | percent of wild-type binding [2]: 50 % of wt; percent of wild-type binding [3]: < 33 % of wt; percent of wild-type binding [4]: < 33 % of wt; percent of wild-type binding [5]: < 33 % of wt; percent of wild-type binding [6]: < 33 % of wt
